US20140171625A1 (FATE THERAPEUTICS, published 2014)
Substitutions are numbered along the chain they refer to. One block for each binder: values may come before it.

Key:
[1] = molecular target: gp130 (on C2C12 myoblasts) (UniProt Q00560); experiment: cell-based or functional assay
[2] = molecular target: T1, gp130 (on C2C12 myoblasts) (UniProt Q00560 23-917, limits assumed); experiment: cell-based or functional assay
T1 sequence (looked up): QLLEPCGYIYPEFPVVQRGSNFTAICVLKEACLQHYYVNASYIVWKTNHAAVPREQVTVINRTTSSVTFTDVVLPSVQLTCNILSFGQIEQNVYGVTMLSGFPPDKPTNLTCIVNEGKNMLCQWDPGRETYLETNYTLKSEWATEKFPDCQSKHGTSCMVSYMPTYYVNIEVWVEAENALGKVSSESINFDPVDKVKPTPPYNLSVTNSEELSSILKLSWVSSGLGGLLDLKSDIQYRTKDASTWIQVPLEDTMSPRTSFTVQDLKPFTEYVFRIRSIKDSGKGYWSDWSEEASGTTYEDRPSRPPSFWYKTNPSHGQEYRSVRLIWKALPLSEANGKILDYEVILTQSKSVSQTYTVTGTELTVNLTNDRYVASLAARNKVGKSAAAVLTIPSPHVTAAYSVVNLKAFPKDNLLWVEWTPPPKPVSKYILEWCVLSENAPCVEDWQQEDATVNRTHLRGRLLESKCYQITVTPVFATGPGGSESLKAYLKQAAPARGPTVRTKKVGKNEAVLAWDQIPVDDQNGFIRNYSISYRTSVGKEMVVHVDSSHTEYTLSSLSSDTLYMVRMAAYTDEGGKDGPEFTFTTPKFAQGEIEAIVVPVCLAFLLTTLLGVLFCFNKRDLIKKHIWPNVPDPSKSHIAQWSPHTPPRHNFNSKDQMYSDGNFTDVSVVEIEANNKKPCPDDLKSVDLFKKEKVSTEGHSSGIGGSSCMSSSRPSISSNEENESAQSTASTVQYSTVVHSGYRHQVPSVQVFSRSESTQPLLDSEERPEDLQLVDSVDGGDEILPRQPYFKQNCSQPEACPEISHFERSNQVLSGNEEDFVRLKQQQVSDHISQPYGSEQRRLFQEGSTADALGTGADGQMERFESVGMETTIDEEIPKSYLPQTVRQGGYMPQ

B2: wild type human cardiotrophin-1 (CT-1) polypeptide, FTV370 (ligand)
chain: SRREGSLEDPQTDSSVSLLPHLEAKIRQTHSLAHLLTKYAEQLLQEYVQLQGDPFGLPSFSPPRLPVAGLSAPAPSHAGLPVHERLRLDAAALAALPPLLDAVCRRQAELNPRAPRLLRRLEDAARQARALGAAVEALLAALGAANRGPRAEPPAATASAASATGVFPAKVLGLRVCGLYREWLSRTEGDLGQLLPGGSA
EC50, Stat3 phosphorylation in C2C12 cells (western blot densitometry) [2]: ~1 ng/mL

B3: FTV381, human CT-1 variant retaining cysteine 105 with cysteine 178 replaced (ligand)
chain: MSRREGSLEDPQTDSSVSLLPHLEAKIRQTHSLAHLLTKYAEQLLQEYVQLQGDPFGLPSFSPPRLPVAGLSAPAPSHAGLPVHERLRLDAAALAALPPLLDAVCRRQAELNPRAPRLLRRLEDAARQARALGAAVEALLAALGAANRGPRAEPPAATASAASATGVFPAKVLGLRVSGLYREWLSRTEGDLGQLLPGGSA
EC50, Stat3 phosphorylation in C2C12 cells (western blot densitometry) [1]: 2 to 5 ng/mL
mean EC50, Stat3 phosphorylation in C2C12 cells [1]: 2.5 ng/mL

The next lines start with the values.

EC50, Stat3 phosphorylation in C2C12 cells (western blot densitometry) [1]: 4 ng/mL
mean EC50, Stat3 phosphorylation in C2C12 cells [1]: 5 ng/mL
B1: FTV384, human CT-1 variant with both natural cysteines replaced with serines and an additional cysteine at its carboxyl terminus (ligand)
chain: MSRREGSLEDPQTDSSVSLLPHLEAKIRQTHSLAHLLTKYAEQLLQEYVQLQGDPFGLPSFSPPRLPVAGLSAPAPSHAGLPVHERLRLDAAALAALPPLLDAVSRRQAELNPRAPRLLRRLEDAARQARALGAAVEALLAALGAANRGPRAEPPAATASAASATGVFPAKVLGLRVSGLYREWLSRTEGDLGQLLPGGSAC

EC50, Stat3 phosphorylation in C2C12 cells (western blot densitometry) [1]: 0.35 ng/mL
B4: FTV380, human CT-1 variant with cysteine 105 mutated to serine (ligand)
chain: B3 chain with C105S, S178C
